Assay results published in paper PMC3153034.

Molecular target: recombinant Smc04048 cytochrome c from Sinorhizobium meliloti (Sinorhizobium meliloti)
Assay: SEC

Work on “recombinant Smc04048 cytochrome c from Sinorhizobium meliloti (natural protein)” yielded a stoichiometry N of 2.
